Assay [1] has as its target T1, HuTL1A mutant R103A (mutant number 4057) (human, UniProt O95150 57-251, limits assumed).
T1 construct: whole entry named
T1 chain: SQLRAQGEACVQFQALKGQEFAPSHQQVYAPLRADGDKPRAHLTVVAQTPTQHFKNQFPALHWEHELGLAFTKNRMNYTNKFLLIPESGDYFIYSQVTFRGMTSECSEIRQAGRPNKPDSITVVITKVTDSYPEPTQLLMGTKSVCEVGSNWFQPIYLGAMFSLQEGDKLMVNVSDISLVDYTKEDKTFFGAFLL
Kind of assay: ELISA on antigen mutant. (In general: An ELISA detects its analyte on a solid surface through an enzyme-linked reagent.)

Assay [2] deals with T2, HuTL1A mutant G124R (mutant number 4059) (human, UniProt O95150 57-251, limits assumed).
T2 construct: whole entry named
T2 chain: T1 chain with A47R, G68R
The assay is described as follows: ELISA on antigen mutant.

Assay [3] deals with T3, FASL (UniProt P48023 134-281, limits assumed).
T3 sequence (looked up): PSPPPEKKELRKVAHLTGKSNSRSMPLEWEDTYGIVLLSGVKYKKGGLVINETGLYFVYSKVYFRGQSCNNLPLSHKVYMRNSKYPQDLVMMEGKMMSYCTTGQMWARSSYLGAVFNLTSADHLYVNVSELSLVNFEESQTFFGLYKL
Kind of assay: ELISA, coated FASL, Ab 25 nM. The method, then: (§1) In this experiment, ELISA was used to assess the binding ability of monoclonal antibodies to TL1A homologous molecules. Representative members of the TNF ligand superfamily, TNFα, LT-α, LIGHT and FASL, were selected for binding testing. 1 μg/mL of TNFα, LT-α, LIGHT or FASL was coated in a microplate with a carbonate buffer solution at pH=9.6, 100 μL per well, and the microplate was incubated at 4° C. overnight. The microplate was then washed 5 times with PBST, blocked with 300 μL/well of PBS containing 1% BSA, and was incubated at room temperature for 1 hour. After washing 5 times with PBST, about 100 μL each of the M701 monoclonal antibodies and the control antibodies were added to each well, and were incubated at room temperature for 1 hour. After washing 5 times with PBST, 100 μL of HRP-anti-human Fc (Sino Biological) was added to each well, and was incubated at room temperature for 1 hour. After washing 5 times with PBST, 100 μL of colorimetric substrate TMB was added to each well, and color was developed at room temperature for 10 minutes, followed by addition of 1M sulfuric acid to terminate the reaction. OD450 nm was recorded on a microplate reader.

Assay [4] addresses T4, LT-α (UniProt P01374 35-205).
T4 sequence (looked up): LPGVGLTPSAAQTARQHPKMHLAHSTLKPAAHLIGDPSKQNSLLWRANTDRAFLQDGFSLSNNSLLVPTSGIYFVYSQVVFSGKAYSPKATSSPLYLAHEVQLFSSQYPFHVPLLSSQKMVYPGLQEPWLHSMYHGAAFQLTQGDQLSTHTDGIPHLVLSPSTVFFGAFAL
Kind of assay: ELISA, coated LT-α, Ab 25 nM. The method, then:
as §1

Assay [5] concerns the target T3, FASL. Kind of assay: ELISA, coated FASL, Ab 100 nM. The method, then: as §1
The target of assay [6] is T5, human TL1A (HuTL1A) (human, UniProt O95150 57-251, limits assumed, biotin-labelled in some assays (site not stated)).
T5 sequence: T1 chain with A47R
Kind of assay: cell-based or functional assay.

The target of assay [7] is T3, FASL. The assay is described as follows: ELISA, coated FASL, Ab 6.25 nM. The method, then: as §1
Assay [8] has as its target T4, LT-α. The assay is described as follows: ELISA, coated LT-α, Ab 6.25 nM. Here is the method:
as §1

Assay [9] concerns the target T6, TNFα (UniProt P01375 77-233). The assay is described as follows: ELISA, coated TNF-α, Ab 100 nM. Here is the method: as §1
The next assay addresses LIGHT (UniProt O43557 74-240, limits assumed). Kind of assay: ELISA, coated LIGHT, Ab 6.25 nM. Here is the method:
as §1

Assay [10] concerns the target T4, LT-α. Kind of assay: ELISA, coated LT-α, Ab 0.391 nM. Here is the method: as §1
The target in assay [11] is T6, TNFα. Kind of assay: ELISA, coated TNF-α, Ab 6.25 nM. Here is the method:
as §1

Assay [12] deals with T6, TNFα. The assay is described as follows: ELISA, coated TNF-α, Ab 0.391 nM. Here is the method: as §1
Assay [13] addresses T6, TNFα. The assay is described as follows: ELISA, coated TNF-α, Ab 0.000 nM (blank). The method, then:
as §1

Assay [14] concerns the target T5, human TL1A (HuTL1A). Kind of assay: ELISA: biotin-HuTL1A on streptavidin plate, antibody diluted at pH 5.8, HRP-anti-human Fc, OD450. Here is the method:
Corresponding antibodies were added to specific wells, and the antibodies were diluted with sodium dihydrogen phosphate-citrate buffer at pH 7.4, pH 6.0, pH 5.8, or pH 5.6. Binding assay was carried out at room temperature for 30 minutes. After the incubation, the excess antibodies were removed and the wells were washed by PBST. HRP-anti-Human Fc (Sino Biological) was then added into each well and incubated for 30 minutes to detect the bound antibody. The substrate TMB was finally added to develop color for 5-10 minutes. The color development reaction was terminated with 1M sulfuric acid. OD450 nm was recorded on a microplate reader, and the data were processed and fitted by 4 parameter logistic regression.

Positions count from the first letter of the chain named.

The values below come from US20250313644A1 (FUTUREGEN BIOPHARMACEUTICAL BEIJING, published 2025).

What is called EC50 (read off the curve) is the midpoint of the concentration-response curve.

T6 sequence (P01375 77-233 limits assumed): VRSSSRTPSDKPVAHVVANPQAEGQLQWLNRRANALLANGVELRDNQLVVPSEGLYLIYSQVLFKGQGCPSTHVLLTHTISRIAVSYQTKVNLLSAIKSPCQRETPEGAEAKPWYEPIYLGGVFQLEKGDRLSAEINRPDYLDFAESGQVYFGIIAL
Chain of LIGHT (O43557 74-240 limits assumed): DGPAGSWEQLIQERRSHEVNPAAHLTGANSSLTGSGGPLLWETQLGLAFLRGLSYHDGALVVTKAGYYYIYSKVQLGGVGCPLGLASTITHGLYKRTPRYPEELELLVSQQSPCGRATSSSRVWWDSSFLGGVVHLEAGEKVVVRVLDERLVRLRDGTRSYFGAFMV

B1: M701-3966 (antibody, human IgG1, kappa, L234A L235A, V domains shown)
VH: ELQLQESGPGLVKPSETLSLTCAVSGVSFSDYHWAWIRQPPGKGLEWIGDINHRGHTNYNPSLKSRVTVSIDTSKNQFSLKLSSVTAADTAVYFCARDFPNFIFDYWGQGTLVTVSS
VL: DIQLTQSPGTLSLSPGERATLSCRASQSVSSYLAWYQQKPGQAPRLLIYGASKRATGIPDRFSGSGSGTDFTLTISRLEPEDFAVYYCQQYGDSPLTFGQGTKVEIKR
notes: Fc-engineered IgG1
In the case of B1, the binding result in assay [1] and in [2] was “no binding” throughout. For the same molecule, the OD450 nm is 0.0662 in the assay with FASL [3]; 0.0639 in the assay with LT-α [4]; 0.0914 with FASL [5]; 0.0525 in the assay with FASL [7]; 0.06 with LT-α [8]; 0.0787 with TNFα [9]. In addition, the OD450 nm was found to be 0.0568 with LIGHT; 0.0604 in the assay with LT-α [10]; 0.0511 with TNFα [11]; 0.0517 in the assay with TNFα [12]; 0.0706 in the assay with TNFα [13]. For the same molecule, in the assay with human TL1A (HuTL1A) [6], the “IC50 (read off the curve); IFN-γ of human T cells with IL-12, IL-18 and exogenous human TL1A” value was roughly 0.3 nM.

B2: M701-4007 (antibody, human IgG1, kappa, L234A L235A, V domains shown)
VH: B1 VH with Y106F
VL: B1 VL with S31T
notes: Fc-engineered IgG1
Take B2: the binding result in [1] and in [2] was “no binding” each time. Moreover, the OD450 nm with FASL [3] stood at 0.0634; with LT-α [4], 0.0628; with FASL [5], 0.089; with FASL [7] it was 0.0523; with LT-α [8], 0.0588; with TNFα [9] it was 0.079. Besides, the OD450 nm is 0.0542 in the assay with LIGHT; 0.0576 with LT-α [10]; 0.0553 in the assay with TNFα [11]; 0.0557 in the assay with TNFα [12]; 0.0762 in the assay with TNFα [13]. Further, the “IC50 (read off the curve); IFN-γ of human T cells with IL-12, IL-18 and exogenous human TL1A” value in the assay with human TL1A (HuTL1A) [6] was roughly 0.2 nM. Also, the “EC50 (read off the curve)” value with human TL1A (HuTL1A) [14] was roughly 0.7 nM.
